How the values were obtained:
Test in all cases: Kinase Profiling Assay
Assay type in all cases: biochemical
Details in all cases: 100 μM peptide
Fms(Y969C)(h) = Fms(Y969C)(h) (Homo sapiens, UniProt P07333, Y969C)
Procedure, shortened: (§1)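 MK2 inhibitory peptides were screened for specificity across a commercial panel of 266 human kinases, and each kinase activity measurement was run in duplicate.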

PKCϵ(h) = target: T1, PKCϵ(h) (Homo sapiens, UniProt Q02156)
T1 sequence (Q02156 1-737): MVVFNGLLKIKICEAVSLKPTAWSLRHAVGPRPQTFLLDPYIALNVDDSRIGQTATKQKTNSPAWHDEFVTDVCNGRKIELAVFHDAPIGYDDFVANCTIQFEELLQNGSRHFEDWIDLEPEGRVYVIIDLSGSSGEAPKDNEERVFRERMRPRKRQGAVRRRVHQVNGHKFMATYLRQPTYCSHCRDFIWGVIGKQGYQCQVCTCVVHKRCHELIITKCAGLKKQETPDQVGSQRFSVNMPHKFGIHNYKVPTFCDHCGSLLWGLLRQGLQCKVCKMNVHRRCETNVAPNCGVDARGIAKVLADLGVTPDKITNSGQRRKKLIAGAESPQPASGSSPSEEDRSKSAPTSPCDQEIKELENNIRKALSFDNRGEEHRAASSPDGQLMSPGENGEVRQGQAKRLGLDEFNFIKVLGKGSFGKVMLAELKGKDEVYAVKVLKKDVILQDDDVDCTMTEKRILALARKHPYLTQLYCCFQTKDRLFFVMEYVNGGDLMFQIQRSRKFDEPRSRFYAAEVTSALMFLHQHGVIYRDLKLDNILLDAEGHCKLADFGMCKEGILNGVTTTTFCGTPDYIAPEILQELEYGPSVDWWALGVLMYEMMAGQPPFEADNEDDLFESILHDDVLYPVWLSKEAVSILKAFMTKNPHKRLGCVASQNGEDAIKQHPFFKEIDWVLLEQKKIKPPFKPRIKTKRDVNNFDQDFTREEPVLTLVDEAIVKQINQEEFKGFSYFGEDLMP
Procedure, shortened: as §1

PrKX(h) = target: T2, PrKX(h) (Homo sapiens, UniProt P51817)
T2 construct: purchased Millipore (IC50 Profiler Express service)
T2 sequence (P51817 1-358): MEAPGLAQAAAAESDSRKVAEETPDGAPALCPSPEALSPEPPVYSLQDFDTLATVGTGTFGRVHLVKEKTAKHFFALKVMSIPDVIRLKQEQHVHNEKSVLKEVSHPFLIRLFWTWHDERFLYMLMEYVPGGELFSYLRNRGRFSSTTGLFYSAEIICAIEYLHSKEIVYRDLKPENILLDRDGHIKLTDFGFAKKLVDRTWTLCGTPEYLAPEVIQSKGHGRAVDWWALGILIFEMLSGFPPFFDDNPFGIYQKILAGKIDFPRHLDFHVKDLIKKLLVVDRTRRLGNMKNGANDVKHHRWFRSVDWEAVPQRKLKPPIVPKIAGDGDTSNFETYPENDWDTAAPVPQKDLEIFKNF
Procedure, shortened: as §1

RIPK2(h) = target: T3, RIPK2(h) (Homo sapiens, UniProt O43353)
T3 construct: purchased Millipore (IC50 Profiler Express service)
T3 sequence (O43353 whole entry): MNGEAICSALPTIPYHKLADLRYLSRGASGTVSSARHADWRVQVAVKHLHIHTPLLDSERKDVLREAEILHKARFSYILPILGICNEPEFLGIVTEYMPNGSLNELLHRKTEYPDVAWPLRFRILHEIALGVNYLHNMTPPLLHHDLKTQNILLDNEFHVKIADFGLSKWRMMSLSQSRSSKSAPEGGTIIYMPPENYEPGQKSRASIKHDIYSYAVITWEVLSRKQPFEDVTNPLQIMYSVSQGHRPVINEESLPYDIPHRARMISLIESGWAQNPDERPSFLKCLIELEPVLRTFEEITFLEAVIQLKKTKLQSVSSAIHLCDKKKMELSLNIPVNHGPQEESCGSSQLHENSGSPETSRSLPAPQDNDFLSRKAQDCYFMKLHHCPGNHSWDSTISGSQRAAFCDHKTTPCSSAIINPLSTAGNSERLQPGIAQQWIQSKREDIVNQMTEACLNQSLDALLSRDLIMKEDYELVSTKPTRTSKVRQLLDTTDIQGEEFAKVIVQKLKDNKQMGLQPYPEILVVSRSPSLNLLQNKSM
Procedure, shortened: as §1

Rse(h) = target: T4, Rse(h) (Homo sapiens, UniProt Q06418)
T4 construct: purchased Millipore (IC50 Profiler Express service)
T4 sequence (Q06418 41-890): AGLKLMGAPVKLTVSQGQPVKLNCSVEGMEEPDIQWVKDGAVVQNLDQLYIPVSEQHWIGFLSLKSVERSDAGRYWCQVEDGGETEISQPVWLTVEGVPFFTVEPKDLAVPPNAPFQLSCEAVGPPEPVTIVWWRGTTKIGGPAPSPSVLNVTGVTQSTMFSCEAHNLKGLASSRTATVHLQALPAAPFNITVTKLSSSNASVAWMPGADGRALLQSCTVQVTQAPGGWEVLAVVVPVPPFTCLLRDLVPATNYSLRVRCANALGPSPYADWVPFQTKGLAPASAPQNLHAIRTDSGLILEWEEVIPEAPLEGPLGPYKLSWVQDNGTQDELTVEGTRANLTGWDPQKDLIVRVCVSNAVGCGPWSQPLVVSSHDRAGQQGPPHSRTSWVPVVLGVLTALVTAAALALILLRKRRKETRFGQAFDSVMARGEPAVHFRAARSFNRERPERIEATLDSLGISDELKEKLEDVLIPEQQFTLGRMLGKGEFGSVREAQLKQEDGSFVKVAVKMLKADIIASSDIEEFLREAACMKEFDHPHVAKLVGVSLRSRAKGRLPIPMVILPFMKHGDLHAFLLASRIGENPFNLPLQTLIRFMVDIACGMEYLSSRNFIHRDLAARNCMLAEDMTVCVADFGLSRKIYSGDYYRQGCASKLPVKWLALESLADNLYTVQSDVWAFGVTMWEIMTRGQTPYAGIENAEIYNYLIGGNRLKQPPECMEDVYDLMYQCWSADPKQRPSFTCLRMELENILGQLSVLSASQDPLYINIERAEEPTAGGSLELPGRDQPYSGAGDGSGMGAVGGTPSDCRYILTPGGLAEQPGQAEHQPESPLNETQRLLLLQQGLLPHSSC
Procedure, shortened: as §1

Txk(h) = target: T5, Txk(h) (Homo sapiens, UniProt P42681)
T5 sequence (P42681 1-527): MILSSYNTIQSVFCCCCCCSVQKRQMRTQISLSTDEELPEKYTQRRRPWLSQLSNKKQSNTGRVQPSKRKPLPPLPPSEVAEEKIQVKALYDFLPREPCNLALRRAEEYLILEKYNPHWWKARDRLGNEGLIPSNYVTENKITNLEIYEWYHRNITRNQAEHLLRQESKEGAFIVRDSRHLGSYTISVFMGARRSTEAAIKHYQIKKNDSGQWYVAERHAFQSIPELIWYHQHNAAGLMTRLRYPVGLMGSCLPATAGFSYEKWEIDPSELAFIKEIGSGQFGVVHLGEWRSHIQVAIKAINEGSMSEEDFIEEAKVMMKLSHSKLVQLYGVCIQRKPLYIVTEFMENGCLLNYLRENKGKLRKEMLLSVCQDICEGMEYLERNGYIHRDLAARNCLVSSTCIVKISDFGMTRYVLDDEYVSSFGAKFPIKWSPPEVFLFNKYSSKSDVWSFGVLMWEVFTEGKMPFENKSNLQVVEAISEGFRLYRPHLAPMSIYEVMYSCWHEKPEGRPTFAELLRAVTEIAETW
Procedure, shortened: as §1

Sequence | Fms(Y969C)(h) % activity (Fms(Y969C)(h)) | PKCϵ(h) % activity (PKCϵ(h)) | PrKX(h) % activity (PrKX(h)) | RIPK2(h) % activity (RIPK2(h)) | Rse(h) % activity (Rse(h)) | Txk(h) % activity (Txk(h))
FAKLAARLYRKALARQLGVAA [MMI-0300] | 72% | 79% | 61% | 97% | 88% | 48%
HRRIKAWLKKIKALARQLGVAA (Mammalian) [MMI-0500] |  | 23% | 57% | 30% | 63% | 10%
KAFAKLAARLYRKALARQLGVAA [MMI-0400] | 91% | 59% | 76% | 98% | 89% | 37%
YARAAARQARAKALNRQLGVA (Mammalian) [MMI-0200] | 88% | 98% |  | 98% | 88% | 98%

— patent US10562947B2, “Compositions and methods for preventing or treating diseases, conditions or processes characterized by aberrant fibroblast proliferation and extracellular matrix deposition” (MOERAE MATRIX, INC., priority 2011, dated 2020)
